Positions count from the first letter of the chain named. Names and notes keep the numbering of the source.
Tests used:
[1] = HP-SEC as in Example 20, fraction of peak area; Fc:Fc self-oligomerization
[2] = HP-SEC, PBS pH 7.4 as mobile phase; Fc:Fc self-oligomerization
[3] = HP-SEC as in Example 20; Fc:Fc self-oligomerization
[4] = HP-SEC, 0.15 M NaCl/0.1 M citrate pH 5.0; Fc:Fc self-oligomerization
[5] = HP-SEC, 0.15 M NaCl/0.1 M citrate pH 6.8; Fc:Fc self-oligomerization
[6] = HP-SEC, 0.1 M Na2SO4/0.1 M sodium phosphate pH 6.8; Fc:Fc self-oligomerization
[7] = HP-SEC, 0.1 M Na2SO4/0.1 M sodium phosphate pH 6.8 (Example 23); Fc:Fc self-oligomerization

B1: Fc-RGY (IgG1m(f) Fc fragment with E345R, E430G and S440Y) (protein)
chain: EPKSCDKTHTCPPCPAPELLGGPSVFLFPPKPKDTLMISRTPEVTCVVVDVSHEDPEVKFNWYVDGVEVHNAKTKPREEQYNSTYRVVSVLTVLHQDWLNGKEYKCKVSNKALPAPIEKTISKAKGQPRRPQVYTLPPSREEMTKNQVSLTCLVKGFYPSDIAVEWESNGQPENNYKTTPPVLDSDGSFFLYSKLTVDKSRWQQGNVFSCSVMHGALHNHYTQKYLSLSPGK
Q: What does the source list for B1?
A: fraction monomers (HP-SEC) [1]: approximately 28% monomers; fraction oligomers (HP-SEC) [1]: 72% oligomers distributed over multiple states

B2: IgG1-005-E345R/E430G/S440Y (protein)
chain: ASTKGPSVFPLAPSSKSTSGGTAALGCLVKDYFPEPVTVSWNSGALTSGVHTFPAVLQSSGLYSLSSVVTVPSSSLGTQTYICNVNHKPSNTKVDKRVEPKSCDKTHTCPPCPAPELLGGPSVFLFPPKPKDTLMISRTPEVTCVVVDVSHEDPEVKFNWYVDGVEVHNAKTKPREEQYNSTYRVVSVLTVLHQDWLNGKEYKCKVSNKALPAPIEKTISKAKGQPRRPQVYTLPPSREEMTKNQVSLTCLVKGFYPSDIAVEWESNGQPENNYKTTPPVLDSDGSFFLYSKLTVDKSRWQQGNVFSCSVMHGALHNHYTQKYLSLSPGK
Q: With B2 as the protein, how does the “% multimers (HP-SEC)” value [2] read?
A: IgG1-005-RGY (84% multimers)

Q: And the “% multimeric (HP-SEC)” value [3]?
A: IgG1-005-RGY (79.2% multimeric)

Q: What about the “fraction monomeric species (HP-SEC)” value [4] of the same protein?
A: >99% of the protein eluting as a monomeric species

Q: What about the “fraction multimer (HP-SEC)” value [4] of the same protein?
A: The fraction multimer dropped to less than 1%

Q: And the “oligomerization (HP-SEC)” value [5]?
A: in citrate pH 6.8 the antibody displayed 84% oligomerization

Q: What about the “fraction monomeric species (HP-SEC)” value [6] of the same protein?
A: 21% of the population eluted in a peak observed at the expected elution time for a monomeric species

Q: And the “fraction oligomer (HP-SEC)” value [6]?
A: a large fraction oligomer which was estimated at 79%

Q: What about the “fraction monomeric species (HP-SEC)” value [7] of the same protein?
A: 23% of the population eluted as a monomeric species

Q: And the “fraction oligomer (HP-SEC)” value [7]?
A: a fraction oligomer of 77%

B3: IgG1-005-E345R/E430G/S440K (protein)
chain: B2 chain with Y323K
Q: For B3, which “% multimers (HP-SEC)” value [2] is on record?
A: IgG1-005-RGK (2.2% multimers)

B4: IgG1-M1-RGY (C. albicans mannan antibody M1g1 with E345R/E430G/S440Y) (protein)
chain: B2 chain
Q: For B4, which “fraction oligomer (HP-SEC)” value [3] is on record?
A: IgG1-M1-RGY (74.5%)

B5: IgG1-005-E345R/E430G/Y436I/S440K (protein)
chain: B2 chain with Y319I, Y323K
Q: For B5, which “% multimers (HP-SEC)” value [2] is on record?
A: IgG1-005-RGIK (1.8% multimers)

B6: IgG1-005-E345R/E430G/K439E/S440Y (protein)
chain: B2 chain with K322E
Q: For B6, which “% multimers (HP-SEC)” value [2] is on record?
A: IgG1-005-RGEY (2.7% multimers)
